Reference: patent US20190351049A1 (Regeneron, published 2019)
Residue numbers refer to the chain shown, from its start. Where two headings read alike, the source gives them in different places.

B1: H2aM15278N (antibody, V domains shown)
VH: QVQLVQSGAEVKKPGASVKVSCKASGYTFTSHGISWVRQAPGQGFEWMGWIGTYNSNTDYAQNFQGRVTMTTDTSTSTAYMELRNLRSDDTAVYYCARERGPYYGMDVWGQGTTVTVSS
VL: EIVLAQSPGTLSLSPGERATLSCRASQSVNSNYLAWYQQKPGQAPRLLIYGASSRATGIPDRFSGSGSGTDFTLTISRLEPEDFAVYYCQQYGNSLTFGPGTKVDFK
B2: H2aM15271N (antibody, V domains shown)
VH: EVQLVESGGALVQPGGSLRLSCAASGFIFGSYEMNWVRQAPGKGLEWLSYISSSGSTIYYADSVKGRFTISRDNAKNSLYLQMNSLRAEDTAVYYCARERGQLGRGGYYYYGMDVWGQGTTVTVSS
VL: EIVLTRSPGTLSLSPGERATLSCRASQSVSSSYLAWYHQKPGQAPRLLMYGTSIRATGIPDRFSGSGSGTDFTLTISRLEPEDFAVYYCQQYGSSPPWTFGQGTKVEIK
B3: H1M15267N (antibody, V domains shown)
VH: QVQLQESGPGLVKPSETLSLTCTVSGGSISSYYWSWIRQPPGKGLEWIGYIYYSGSPNYNPSLKSRVTISVDTSKNQFSLKLTSVTAADTAVYYCARSLNWGPPFDYWGQGTLVTVSS
VL: not shown
B4: H2bM15292N (antibody, V domains shown)
VH: QVQLVQSGAEVKKPGSSVKVSCKASGGTFNNYAISWVRQAPGQGLEWMGGIIPFFGTTNYAQKFQDRVTITSDDSTITAYMELSRLRSEDTAVYYCARDEPRRDGYNYYHYYYMDVWGQGTTVTVSS
VL: DIQMTQSPSSLSASVGDRVTITCRASQSINSYLNWYQQKPGKAPNLLIYAASSLQSGVPSRFSGSGSGTDFTLTISSLHPEDFATYYCQQSYSTPPITFGQGTRLEIK
B5: H2bM15291N (antibody, V domains shown)
VH: QVQLVQSGAEVKKPGSSVKVSCKASGDTFSTYAVSWVRQAPGQGLEWMGGIIPFFGTSNYAQKFQGRVTITTDESTTTAYMELNSLRSEDTAVYYCAREITMVRGLTNYHFYGMDVWGQGTTVTVSS
VL: not shown
B6: H1M15290N (antibody, V domains shown)
VH: QVQLVQSGAEVKKPGSSVKVSCKASGGTFSTYAISWVRQAPGQGLEWMGGIIPFFGTANYAQKFQGRVTITTDESTSTAYMELSSLRSEDTAVYYCAREGTYYDSLTGYYTHYYRMDVWGQGTTVTVSS
VL: not shown
B7: H1M15293N (antibody, V domains shown)
VH: QVQLVQSGAEVKKPGSSVKVSCKVSGVTFSSYAISWVRQAPGQGLEWMGGIIPFFGTASYAQKFQGRVTVTTDESTSTAYMEVSSLRSEDTAVYYCARDNPELTKEGYYHYYAMDVWGQGTTVTVSS
VL: not shown
B8: H1M15289N (antibody, V domains shown)
VH: QVQLQESGPGLVKPSETLSLTCTVSGGSISSYYWSWIRQPPGKGLEWIGYIYYSGSANYNPSLKSRVTISVDTSKNQFSLKLSSVTAADTAVYYCVRDRDLLLDHWGQGTLVTVSS
VL: EIVMTQSPATLSVSPGKRATLSCRASQSVSSNLAWYQQKPGQAPRLLIYGASTRTTGFPARFSGSGSGTDFTLTISSLQSEDFAVYYCQQYNNWPYTFGQGTMLEIK
B9: H1M15269N (antibody, V domains shown)
VH: EVQLLESGGGLVQPGGSLRLSCPASGFTFSNYAMTWVRQAPGKGLEWVSAISGSGATTKYADSVKGRFTISRDNSRNTLYLQMNSLRAEDTAVYYCAKGGSGSYFPYYYYGLDVWGQGTTVTVSS
VL: EIVMTQSPATLSVSPGDSATLSCRASQTVSSNLAWYQQKPGQAPRLLIYGASTRATGIPARFSGSGSGTEFTLTISSLQSEDFAVYYCQQYYNWWTFGQGTKVEIK
B10: H2aM15287N (antibody, V domains shown)
VH: QLQLQESGPGLVKPSETLSLTCTVSGGSISSGNYYWGWIRQPPGKGLEWFGTIYYSGSTYYNPSLKSRVTISVDTSKNQFSLKLSSVTAADTAVYYCARRAAVGHFDYWGQGTLVTVSS
VL: DIQMTQSPSTLSASVGDRVTITCRASQSISTWLAWYQQKPGKAPKLLIYEASSLESGVPSRFSGSGFGTEFTLTISRLQPDDFATYFCQQYNTYWTFGQGTKVEIK
B11: H2aM15270N (antibody, V domains shown)
VH: EVQLLESGGGLEQPGGSLRLSCAASGFTFSSYAMIWVRQAPGKGLEWVSTISGSGVNTYYADSVKGRFTISRDNSKNTLHLQMNSLRAEDTAVYHCAKEGLDCANGVCYNYYGMDVWGQGTTVTVSS
VL: DIQMTQSPSSLSASVGDRVTITCRASQSINSFLNWYHQKPGKAPKFLIYSASNLQSGVPSRFSGSGSGTDFTLTISSLQPEDFSTYYCQQSYSIPLTFGGGTKVEIK
B12: H2aM15281N (antibody, V domains shown)
VH: QVQLVQSGAEVKKPGSSVKVSCKASKDTFSSYAISWVRQAPGQGLEWMGGIIPFFGTTTYEQKFQGRVTITTDESTRTAYMELSSLRSEDSAVYYCARDRPCISSAGTRYHYCVMDVWGQGTTVTVSS
VL: not shown
B13: H2aM15272N (antibody, V domains shown)
VH: B12 VH with Q3R, K26G, G56V, E61A, K63N
VL: not shown
B14: H1M15277N (antibody, V domains shown)
V domain 1: EVQLLESGGGLVQPGGSLRLSCAASGFTFSSYAMSWVRQAPGKGLEWVSAISGRGGNTYYADSVKGRFTISRDNSKNTLFLQMNTLRAEDTAVYYCAKDRGFGFFDIWGRGTLATVSS
V domain 2: not shown
B15: H1H15211P (antibody, V domains shown)
VH: EVQLVESGGGLVQPGGSLRLSCVVSGFTFSNYDMSWVRQAPGRGLEWVSAIRGSGFNTYYADSVKGRFTISRDNSKNTLYLQMNSLRAEDTAVYYCAKDGSIVSMDYWGQGTLVTVSS
VL: not shown
B16: H1H15188P (antibody, V domains shown)
VH: QVQLVQSGAEVKKPGSSVKVSCKASGGSFSVYAISWVRQAPGQGLEWMGGIIPIFGTANYAQKFQDRFTITTDESTSTAYMELSSLRSEDTAMYYCAREGDIVVLPAGKGGMDVWGQGTTVTVSS
VL: DIVMTQSPLSLPVTPGEPASISCRSSQSLLHGNGYNYLDWYLQKPGQSPQLLIYLVSHRASGVPDRFSGSGSGTDFTLKISRVEAEDVGVYYCMQALQSPWTFGQGTKVEIK
B17: H1H15177P (antibody, V domains shown)
VH: EVQLVESGGGLVQPGGSLRLSCSASGFTFSSYDMSWVRQAPGKGLEWVSAIRGSGHTTYYADSVKGRFTISRDNSKNTLYLEMNSLRAEDTAVYYCVKDGSIVGFDPWGQGTLVTVSS
VL: not shown
B18: H1H15203P (antibody, V domains shown)
VH: EVQLVESGGDLVQPGGSLRVSCAASGFTFSNYDMYWVRQAPGKGLEWVSVISGIGATTYYADSVKGRFTISRDNSKNTVFLQMNSLRAEDTAVYYCVKGGPIVATDYWGQGTLVTVSS
VL: not shown
B19: H2aM15279N (antibody, V domains shown)
VH: EVQLLESGGGLVQTGGSLRLSCAASGFTFSNYAMSWVRQAPGKGLEWVSAISDRGGSIYYADSVKGRFTISRDNSKNTKYLQMDSLRAEDTAVYYCAQDRGFGVFDYWGQGTLVTVSS
VL: DIQMTQSPSSLSASVGDRVTITCQASQDIGNYLNWFQQRPGKAPNLLIYGASNLETGVPSRFSGGGSGTDFTFTISSLQPEDIATYFCQQYDNLPFTFGPGTKVEIK
B20: H1M15280N (antibody, V domains shown)
VH: EVQLLESGGGLVQPGGSLRLSCAASGFTFSSYAMSWVRQAPGKGLEWVSAISGSGSSTYYADSVKGRFTISRDNSKNTLFLQMNSLRAEDTAVYYCAEGGDVDFDYWGQGTLVTVSS
VL: not shown

Tests used:
[1] = molecular target: T1, MERS-CoV spike protein (EMC/2012), wt (MERS-CoV (isolate EMC/2012), UniProt K9N5Q8 18-1353); assay: cell-based or functional assay
[2] = molecular target: T1, MERS-CoV spike protein (EMC/2012), wt; assay: cell-based or functional assay; remark: listed apart in the source
[3] = molecular target: T1, MERS-CoV spike protein (EMC/2012), wt; assay: cell-based or functional assay; remark: listed apart in the source
MERS-RBD-mFc = MERS-RBD-mFc (MERS-CoV (isolate EMC/2012), UniProt K9N5Q8 367-606); assay: Octet BLI, MERS.mFc captured on the sensor, then mAb-1 applied

Row | Binder | IC50 against MERSpp [1] [nM] | IC50 against live virus (EMC2012) [1] [nM] | % Neutralization (.025 µg/ml), MERSpp infectivity [2] [%] | Neutralization IC50 (M), MERSpp infectivity [2] [M] | IC50 against MERSpp [3] [nM] | IC50 against live virus (EMC2012) [3] [nM] | mAb-1 Binding (nm) (MERS-RBD-mFc)
1 | B1 | 0.142 | 0.644 | 98 | 2.11e-10 |  |  | 
2 | B2 | 0.127 | 1.03 | 97 | 2.74e-10 |  |  | 
3 | B3 | 0.0998 | 0.891 | 99 | 1.49e-10 |  |  | 
4 | B4 | 0.113 | 2.26 | 91 | 3.57e-10 |  |  | 
5 | B5 | 0.186 | 2.22 | 90 | 3.05e-10 |  |  | 
6 | B6 | 0.21 | 2.55 | 83 | 5.84e-10 |  |  | 
7 | B7 | 0.258 | 2.58 | 86 | 4.36e-10 |  |  | 
8 | B8 | 0.281 | 3.15 | 89 | 4.25e-10 |  |  | 
9 | B9 | 0.688 | 6.8 | 40 | 1.02e-09 |  |  | 
10 | B10 | 2.93 | 8.92 | 5 | 3.59e-09 |  |  | 
11 | B11 | 0.102 | 0.711 | 98 | 3.25e-10 |  |  | 
12 | B12 | 0.0785 | 0.292 | 98 | 4.64e-10 |  |  | 
13 | B13 | 0.0723 | 0.569 | 97 | 2.21e-10 |  |  | 
14 | B14 | 0.0646 | 0.287 | 99 | 1.33e-10 |  |  | 
15 | B15 |  |  |  |  | 0.0474 | 0.369 | 0.76
16 | B16 |  |  |  |  | 0.062 | 0.505 | 0.54
17 | B17 |  |  |  |  | 0.0457 | 0.629 | 0.6
18 | B18 |  |  |  |  | 0.0765 | 0.826 | 0.51
19 | B19 | 0.0939 | 0.825 | 97 | 1.38e-10 |  |  | 
20 | B20 | 0.111 | 0.763 | 97 | 1.76e-10 |  |  | 
